In publication PMC6509359 (Molecular Cell, 2019):
Positions count from the first letter of the chain named. In names and notes the source's numbering stands. Several values for one entry are separate records, joined by “and”; a condition that tells them apart may be missing. Equal values may be shown once.

B1: Human USP28 (1-1077) (enzyme, UniProt Q96RU2 1-1077, looked up)
chain: MTAELQQDDAAGAADGHGSSCQMLLNQLREITGIQDPSFLHEALKASNGDITQAVSLLTDERVKEPSQDTVATEPSEVEGSAANKEVLAKVIDLTHDNKDDLQAAIALSLLESPKIQADGRDLNRMHEATSAETKRSKRKRCEVWGENPNPNDWRRVDGWPVGLKNVGNTCWFSAVIQSLFQLPEFRRLVLSYSLPQNVLENCRSHTEKRNIMFMQELQYLFALMMGSNRKFVDPSAALDLLKGAFRSSEEQQQDVSEFTHKLLDWLEDAFQLAVNVNSPRNKSENPMVQLFYGTFLTEGVREGKPFCNNETFGQYPLQVNGYRNLDECLEGAMVEGDVELLPSDHSVKYGQERWFTKLPPVLTFELSRFEFNQSLGQPEKIHNKLEFPQIIYMDRYMYRSKELIRNKRECIRKLKEEIKILQQKLERYVKYGSGPARFPLPDMLKYVIEFASTKPASESCPPESDTHMTLPLSSVHCSVSDQTSKESTSTESSSQDVESTFSSPEDSLPKSKPLTSSRSSMEMPSQPAPRTVTDEEINFVKTCLQRWRSEIEQDIQDLKTCIASTTQTIEQMYCDPLLRQVPYRLHAVLVHEGQANAGHYWAYIYNQPRQSWLKYNDISVTESSWEEVERDSYGGLRNVSAYCLMYINDKLPYFNAEAAPTESDQMSEVEALSVELKHYIQEDNWRFEQEVEEWEEEQSCKIPQMESSTNSSSQDYSTSQEPSVASSHGVRCLSSEHAVIVKEQTAQAIANTARAYEKSGVEAALSEVMLSPAMQGVILAIAKARQTFDRDGSEAGLIKAFHEEYSRLYQLAKETPTSHSDPRLQHVLVYFFQNEAPKRVVERTLLEQFADKNLSYDERSISIMKVAQAKLKEIGPDDMNMEEYKKWHEDYSLFRKVSVYLLTGLELYQKGKYQEALSYLVYAYQSNAALLMKGPRRGVKESVIALYRRKCLLELNAKAASLFETNDDHSVTEGINVMNELIIPCIHLIINNDISKDDLDAIEVMRNHWCSYLGQDIAENLQLCLGEFLPRLLDPSAEIIVLKEPPTIRPNSPYDLCSRFAAVMESIQGVSTVTVK
notes: USP28, human, residues 1-1077 (1,077 aa); also called full-length USP28; source: E. coli Rosetta2(DE3)pLacI, purified (HisTrap, 3C protease, Resource Q, size exclusion)
B2: Human USP28 (149-703) L415E I419E (domain or fragment, UniProt Q96RU2 149-703, looked up)
chain: PNPNDWRRVDGWPVGLKNVGNTCWFSAVIQSLFQLPEFRRLVLSYSLPQNVLENCRSHTEKRNIMFMQELQYLFALMMGSNRKFVDPSAALDLLKGAFRSSEEQQQDVSEFTHKLLDWLEDAFQLAVNVNSPRNKSENPMVQLFYGTFLTEGVREGKPFCNNETFGQYPLQVNGYRNLDECLEGAMVEGDVELLPSDHSVKYGQERWFTKLPPVLTFELSRFEFNQSLGQPEKIHNKLEFPQIIYMDRYMYRSKELIRNKRECIRKEKEEEKILQQKLERYVKYGSGPARFPLPDMLKYVIEFASTKPASESCPPESDTHMTLPLSSVHCSVSDQTSKESTSTESSSQDVESTFSSPEDSLPKSKPLTSSRSSMEMPSQPAPRTVTDEEINFVKTCLQRWRSEIEQDIQDLKTCIASTTQTIEQMYCDPLLRQVPYRLHAVLVHEGQANAGHYWAYIYNQPRQSWLKYNDISVTESSWEEVERDSYGGLRNVSAYCLMYINDKLPYFNAEAAPTESDQMSEVEALSVELKHYIQEDNWRFEQEVEEWEEEQSCKI
notes: also called variant with the insertion-destabilizing mutation; source: E. coli Rosetta2(DE3)pLacI, purified (HisTrap, 3C protease, Resource Q, size exclusion)
B3: Human USP28 (1-703) (domain or fragment, UniProt Q96RU2 1-703, looked up)
chain: MTAELQQDDAAGAADGHGSSCQMLLNQLREITGIQDPSFLHEALKASNGDITQAVSLLTDERVKEPSQDTVATEPSEVEGSAANKEVLAKVIDLTHDNKDDLQAAIALSLLESPKIQADGRDLNRMHEATSAETKRSKRKRCEVWGENPNPNDWRRVDGWPVGLKNVGNTCWFSAVIQSLFQLPEFRRLVLSYSLPQNVLENCRSHTEKRNIMFMQELQYLFALMMGSNRKFVDPSAALDLLKGAFRSSEEQQQDVSEFTHKLLDWLEDAFQLAVNVNSPRNKSENPMVQLFYGTFLTEGVREGKPFCNNETFGQYPLQVNGYRNLDECLEGAMVEGDVELLPSDHSVKYGQERWFTKLPPVLTFELSRFEFNQSLGQPEKIHNKLEFPQIIYMDRYMYRSKELIRNKRECIRKLKEEIKILQQKLERYVKYGSGPARFPLPDMLKYVIEFASTKPASESCPPESDTHMTLPLSSVHCSVSDQTSKESTSTESSSQDVESTFSSPEDSLPKSKPLTSSRSSMEMPSQPAPRTVTDEEINFVKTCLQRWRSEIEQDIQDLKTCIASTTQTIEQMYCDPLLRQVPYRLHAVLVHEGQANAGHYWAYIYNQPRQSWLKYNDISVTESSWEEVERDSYGGLRNVSAYCLMYINDKLPYFNAEAAPTESDQMSEVEALSVELKHYIQEDNWRFEQEVEEWEEEQSCKI
notes: USP28, human, residues 1-703; source: E. coli Rosetta2(DE3)pLacI, purified (HisTrap, 3C protease, Resource Q, size exclusion)
B4: Human USP25 (157-714) P521S F522E (domain or fragment, UniProt Q9UHP3 157-714, looked up)
chain: NPYDRKRQDKAPVGLKNVGNTCWFSAVIQSLFNLLEFRRLVLNYKPPSNAQDLPRNQKEHRNLPFMRELRYLFALLVGTKRKYVDPSRAVEILKDAFKSNDSQQQDVSEFTHKLLDWLEDAFQMKAEEETDEEKPKNPMVELFYGRFLAVGVLEGKKFENTEMFGQYPLQVNGFKDLHECLEAAMIEGEIESLHSENSGKSGQEHWFTELPPVLTFELSRFEFNQALGRPEKIHNKLEFPQVLYLDRYMHRNREITRIKREEIKRLKDYLTVLQQRLERYLSYGSGPKRFPLVDVLQYALEFASSKPVCTSPVDDIDASSPPSGSIPSQTLPSTTEQQGALSSELPSTSPSSVAAISSRSVIHKSETQSRIPPDLPMHPAPRHITEEELSVLESCLHRWRTEIENDTRDLQESISRIHRTIELMYSDKSMIQVPYRLHAVLVHEGQANAGHYWAYIFDHRESRWMKYNDIAVTKSSWEELVRDSFGGYRNASAYCLMYINDKAQFLIQEEFNKETGQPLVGIETLPPDLRDFVEEDNQRFEKELEEWDAQLAQKALQE
notes: source: E. coli Rosetta2(DE3)pLacI, purified (HisTrap, 3C protease, Resource Q, size exclusion)
B5: Human USP25 (157-714) P521A (domain or fragment, UniProt Q9UHP3 157-714, looked up)
chain: B4 chain with S365A, E366F
notes: as for B4
B6: Human USP25 (157-714) F522A (domain or fragment, UniProt Q9UHP3 157-714, looked up)
chain: B4 chain with S365P, E366A
notes: as for B4
B7: Human USP25 (157-714) F522L (domain or fragment, UniProt Q9UHP3 157-714, looked up)
chain: B4 chain with S365P, E366L
notes: as for B4
B8: Human USP25 (157-714) Q524S (domain or fragment, UniProt Q9UHP3 157-714, looked up)
chain: B4 chain with S365P, E366F, Q368S
notes: as for B4
B9: Flag-USP25 (2-1055) (enzyme, human, UniProt Q9UHP3 2-1055, looked up)
chain: TVEQNVLQQSAAQKHQQTFLNQLREITGINDTQILQQALKDSNGNLELAVAFLTAKNAKTPQQEETTYYQTALPGNDRYISVGSQADTNVIDLTGDDKDDLQRAIALSLAESNRAFRETGITDEEQAISRVLEASIAENKACLKRTPTEVWRDSRNPYDRKRQDKAPVGLKNVGNTCWFSAVIQSLFNLLEFRRLVLNYKPPSNAQDLPRNQKEHRNLPFMRELRYLFALLVGTKRKYVDPSRAVEILKDAFKSNDSQQQDVSEFTHKLLDWLEDAFQMKAEEETDEEKPKNPMVELFYGRFLAVGVLEGKKFENTEMFGQYPLQVNGFKDLHECLEAAMIEGEIESLHSENSGKSGQEHWFTELPPVLTFELSRFEFNQALGRPEKIHNKLEFPQVLYLDRYMHRNREITRIKREEIKRLKDYLTVLQQRLERYLSYGSGPKRFPLVDVLQYALEFASSKPVCTSPVDDIDASSPPSGSIPSQTLPSTTEQQGALSSELPSTSPSSVAAISSRSVIHKPFTQSRIPPDLPMHPAPRHITEEELSVLESCLHRWRTEIENDTRDLQESISRIHRTIELMYSDKSMIQVPYRLHAVLVHEGQANAGHYWAYIFDHRESRWMKYNDIAVTKSSWEELVRDSFGGYRNASAYCLMYINDKAQFLIQEEFNKETGQPLVGIETLPPDLRDFVEEDNQRFEKELEEWDAQLAQKALQEKLLASQKLRESETSVTTAQAAGDPEYLEQPSRSDFSKHLKEETIQIITKASHEHEDKSPETVLQSAIKLEYARLVKLAQEDTPPETDYRLHHVVVYFIQNQAPKKIIEKTLLEQFGDRNLSFDERCHNIMKVAQAKLEMIKPEEVNLEEYEEWHQDYRKFRETTMYLIIGLENFQRESYIDSLLFLICAYQNNKELLSKGLYRGHDEELISHYRRECLLKLNEQAAELFESGEDREVNNGLIIMNEFIVPFLPLLLVDEMEEKDILAVEDMRNRWCSYLGQEMEPHLQEKLTDFLPKLLDCSMEIKSFHEPPKLPSYSTHELCERFARIMLSLSRTPADGR
notes: tetrameric and dimeric populations; also called FLAG-tagged USP25; ectopically expressed wild-type USP25; source: HEK293, transfected (pOPINE), in lysate; not shown: Flag, N-terminal, kept
B10: Flag-USP25 (2-1055) P521S F522E (enzyme, human, UniProt Q9UHP3 2-1055, looked up)
chain: B9 chain with P520S, F521E
notes: also called USP25 mutated in the AIM (P521S F522E); source: HEK293, transfected (pOPINE), in lysate; not shown: Flag, N-terminal, kept
B11: Chimera: Human USP28 (149-[AIM of Human USP25]-703) (domain or fragment)
chain: PNPNDWRRVDGWPVGLKNVGNTCWFSAVIQSLFQLPEFRRLVLSYSLPQNVLENCRSHTEKRNIMFMQELQYLFALMMGSNRKFVDPSAALDLLKGAFRSSEEQQQDVSEFTHKLLDWLEDAFQLAVNVNSPRNKSENPMVQLFYGTFLTEGVREGKPFCNNETFGQYPLQVNGYRNLDECLEGAMVEGDVELLPSDHSVKYGQERWFTKLPPVLTFELSRFEFNQSLGQPEKIHNKLEFPQIIYMDRYMYRSKELIRNKRECIRKLKEEIKILQQKLERYVKYGSGPARFPLPDMLKYVIEFASTKPASESCPPESDTHMTLPLSSVHCSVSDQTSKESTSTESSSQDVESTFSSPEDRSVIHKPFTQSRIPMEMPSQPAPRTVTDEEINFVKTCLQRWRSEIEQDIQDLKTCIASTTQTIEQMYCDPLLRQVPYRLHAVLVHEGQANAGHYWAYIYNQPRQSWLKYNDISVTESSWEEVERDSYGGLRNVSAYCLMYINDKLPYFNAEAAPTESDQMSEVEALSVELKHYIQEDNWRFEQEVEEWEEEQSCKI
B12: Chimera: Human USP25 (157-[AIM of Human USP28]-714) (domain or fragment)
chain: B4 chain with R359S, S360L, V361P, I362K, H363S, S365P, E366L, Q368S, I371S, P372S

Key:
[1] = biological target: the molecule itself; experiment: SEC-MALS; 100 μL of 1-2 mg/mL protein on Superdex 200 10/300, 0.5 mL/min, PBS + 2 mM DTT
[2] = biological target: the molecule itself; experiment: native gel or EMSA; native PAGE of lysates of HEK293 cells transfected with FLAG- or HA-tagged proteins, immunoblotting; recombinant USP25 tetramer and dimer fractions as size standard

Protein | stoichiometry N [1] | stoichiometry N [2]
B1 | 2 | –
B2 | 2 | –
B3 | 2 | –
B4 | 2 | –
B5 | 2 | –
B6 | 2 | –
B7 | 2 | –
B8 | 2 | –
B9 | – | 4 and 2
B10 | – | 2
B11 | 2 | –
B12 | 2 | –
